The text below walks through data of patent publication US20250161478A1, “LINKER PAYLOADS AND CONJUGATES THEREOF” (priority 2021, published 2025).

This experiment deals with TYRP1 antigen on human melanoma cells (IGR-1, SK-MEL-30, SK-MEL-28) (human) (UniProt P17643). In words: cell-based or functional assay.

“TAAuM (anti-mGP75-maleimidoacetyl-β-Ala-Val-Ser(Glc)-PAB-MMAU), DAR 10 (antibody)” returned an IC50, cell viability (PrestoBlue), IGR-1 cells of 1.3 nM.
